# In publication PMC9860392, “The N-terminal domain of human mitochondrial helicase Twinkle has DNA-binding activity crucial for supporting processive DNA synthesis by polymerase γ” (The Journal of Biological Chemistry, 2022):
# T1: Twinkle NTD (Homo sapiens, UniProt Q96RR1 43-372)
# T1 sequence: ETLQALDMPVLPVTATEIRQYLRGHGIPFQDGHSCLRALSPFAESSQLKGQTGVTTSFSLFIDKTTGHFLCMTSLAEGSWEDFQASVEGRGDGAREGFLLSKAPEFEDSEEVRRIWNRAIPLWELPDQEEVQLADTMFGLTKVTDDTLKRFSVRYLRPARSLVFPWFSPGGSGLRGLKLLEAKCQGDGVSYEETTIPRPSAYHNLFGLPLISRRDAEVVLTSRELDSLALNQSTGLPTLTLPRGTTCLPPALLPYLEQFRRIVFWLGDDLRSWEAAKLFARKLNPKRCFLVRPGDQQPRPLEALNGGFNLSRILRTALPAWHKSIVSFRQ
# T2: FL Twinkle (mitochondrial helicase) (Homo sapiens, UniProt Q96RR1 43-684)
# T2 sequence: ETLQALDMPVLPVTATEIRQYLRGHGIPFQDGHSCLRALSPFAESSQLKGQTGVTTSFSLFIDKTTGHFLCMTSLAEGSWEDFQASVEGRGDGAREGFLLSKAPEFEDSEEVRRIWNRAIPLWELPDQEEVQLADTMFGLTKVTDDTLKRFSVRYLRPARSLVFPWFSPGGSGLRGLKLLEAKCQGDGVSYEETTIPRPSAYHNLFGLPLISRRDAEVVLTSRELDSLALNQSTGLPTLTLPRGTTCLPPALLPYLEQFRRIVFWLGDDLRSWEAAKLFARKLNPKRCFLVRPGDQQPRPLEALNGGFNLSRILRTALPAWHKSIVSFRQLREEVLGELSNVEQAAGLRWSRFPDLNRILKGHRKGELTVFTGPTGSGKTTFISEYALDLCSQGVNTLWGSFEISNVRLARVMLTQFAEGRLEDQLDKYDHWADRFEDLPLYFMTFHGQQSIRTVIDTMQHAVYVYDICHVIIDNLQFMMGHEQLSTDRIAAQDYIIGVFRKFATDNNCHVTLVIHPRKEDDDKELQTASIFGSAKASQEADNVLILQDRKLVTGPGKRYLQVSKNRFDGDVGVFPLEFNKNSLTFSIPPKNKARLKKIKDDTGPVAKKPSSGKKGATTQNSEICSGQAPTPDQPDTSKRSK
# T3: Twinkle CTD (C-terminal domain plus linker) (Homo sapiens, UniProt Q96RR1 360-684)
# T3 sequence: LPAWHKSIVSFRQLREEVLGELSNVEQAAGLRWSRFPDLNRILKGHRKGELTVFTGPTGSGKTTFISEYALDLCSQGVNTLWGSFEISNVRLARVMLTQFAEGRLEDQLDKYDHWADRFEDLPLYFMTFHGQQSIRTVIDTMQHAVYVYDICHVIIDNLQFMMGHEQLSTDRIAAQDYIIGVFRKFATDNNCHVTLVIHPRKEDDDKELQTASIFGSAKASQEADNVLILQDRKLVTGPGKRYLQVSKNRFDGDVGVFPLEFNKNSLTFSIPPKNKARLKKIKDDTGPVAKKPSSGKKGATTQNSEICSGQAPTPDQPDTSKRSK
# B1: Twinkle C-terminal domain plus linker (amino acids 360-684) (domain or fragment, human, UniProt Q96RR1 360-684, looked up)
# chain: T3 sequence
# notes: human mitochondrial helicase Twinkle, amino acids 360-684 (linker region and C-terminal domain; 36,650 Da); Cloned in the pET28 SUMO expression vector; SUMO cut with ULP1 SUMO-protease; the fusion was purified on Ni resin, so it probably carried a His tag that left with SUMO; also called CTD; Twinkle CTD; source: E. coli Rosetta 2 DE3 pLacI, purified (PEI, ammonium sulfate, Ni-NTA, heparin)
# B2: full-length (FL) human Twinkle (amino acids 43-684) (enzyme, UniProt Q96RR1 43-684, looked up)
# chain: T2 sequence
# notes: human mitochondrial helicase Twinkle, amino acids 43-684; SUMO fusion cut with ULP1 SUMO-protease; the fusion was purified on Ni resin, so it probably carried a His tag that left with SUMO; also called FL Twinkle; TWNK; source: E. coli Rosetta 2 DE3 pLacI, purified (PEI, ammonium sulfate, Ni sepharose, Q sepharose, heparin)
# Key:
# Twinkle NTD [1] = target: T1, Twinkle NTD; experiment: fluorescence anisotropy; no NaCl added; weak phase of two-site fit; 50 mM Tris acetate pH 7.5, 10% glycerol, 0.05% Tween-20, 0.5 mM DTT, 0 or 50 mM NaCl; 2.5 nM DNA; no Mg2+ or nucleotide listed; temperature not stated; details: protein: recombinant; tags: SUMO tag removed (ULP1); label: 3' fluorescein-T; single strand
# Twinkle NTD [2] = target: T1, Twinkle NTD; experiment: fluorescence anisotropy; no NaCl added; tight phase of two-site fit; 50 mM Tris acetate pH 7.5, 10% glycerol, 0.05% Tween-20, 0.5 mM DTT, 0 or 50 mM NaCl; 2.5 nM DNA; no Mg2+ or nucleotide listed; temperature not stated; details: protein: recombinant; tags: SUMO tag removed (ULP1); label: 3' fluorescein-T; single strand
# [3] = target: T2, FL Twinkle (mitochondrial helicase); experiment: fluorescence anisotropy; no NaCl added; 50 mM Tris acetate pH 7.5, 10% glycerol, 0.05% Tween-20, 0.5 mM DTT, 0 or 50 mM NaCl; 2.5 nM DNA; no Mg2+ or nucleotide listed; temperature not stated; details: protein: recombinant; tags: SUMO tag removed (ULP1); chain copies: 6; label: 3' fluorescein-T; single strand
# [4] = target: T3, Twinkle CTD (C-terminal domain plus …); experiment: as above; details: protein: recombinant; tags: SUMO tag removed (ULP1); chain copies: 6; label: 3' fluorescein-T; single strand
# [5] = target: T2, FL Twinkle (mitochondrial helicase); experiment: fluorescence anisotropy; 50 mM NaCl; 50 mM Tris acetate pH 7.5, 10% glycerol, 0.05% Tween-20, 0.5 mM DTT, 0 or 50 mM NaCl; 2.5 nM DNA; no Mg2+ or nucleotide listed; temperature not stated; details: protein: recombinant; tags: SUMO tag removed (ULP1); chain copies: 6; label: 3' fluorescein-T; single strand
# [6] = target: T3, Twinkle CTD (C-terminal domain plus …); experiment: as above; details: protein: recombinant; tags: SUMO tag removed (ULP1); chain copies: 6; label: 3' fluorescein-T; single strand
# [7] = target: the molecule itself; experiment: SEC; Superdex 200 Increase 10/300 GL, 4 °C, 0.3 ml/min; 50 μl of 10 μM (monomer) CTD in 50 mM Tris-Cl pH 7.1, 5% glycerol, 600 mM NaCl; size from a calibration curve of protein standards
# [8] = target: the molecule itself; experiment: SEC; Superdex 200 Increase 10/300 GL, 4 °C, 0.3 ml/min; 15 μl of 38.5 μM (monomer) FL Twinkle in 50 mM Tris-Cl pH 7.1, 5% glycerol, 300 mM NaCl, 1 mM TCEP; size from a calibration curve of protein standards
# Twinkle NTD [9] = target: T1, Twinkle NTD; experiment: fluorescence anisotropy; no NaCl added; 50 mM Tris acetate pH 7.5, 10% glycerol, 0.05% Tween-20, 0.5 mM DTT, 0 or 50 mM NaCl; 2.5 nM DNA; no Mg2+ or nucleotide listed; temperature not stated; details: protein: recombinant; tags: SUMO tag removed (ULP1); label: 3' fluorescein-T; single strand
# Twinkle NTD [10] = target: T1, Twinkle NTD; experiment: fluorescence anisotropy; no NaCl added; negligible binding; 50 mM Tris acetate pH 7.5, 10% glycerol, 0.05% Tween-20, 0.5 mM DTT, 0 or 50 mM NaCl; 2.5 nM DNA; no Mg2+ or nucleotide listed; temperature not stated; details: protein: recombinant; tags: SUMO tag removed (ULP1); label: 3' fluorescein-T; single strand
# [11] = target: T2, FL Twinkle (mitochondrial helicase); experiment: fluorescence anisotropy; 50 mM NaCl (error exceeds value); 50 mM Tris acetate pH 7.5, 10% glycerol, 0.05% Tween-20, 0.5 mM DTT, 0 or 50 mM NaCl; 2.5 nM DNA; no Mg2+ or nucleotide listed; temperature not stated; details: protein: recombinant; tags: SUMO tag removed (ULP1); chain copies: 6; label: 3' fluorescein-T; single strand
Binder,Kd [3],Kd [4],Kd [5],Kd (Twinkle NTD [9]),also measured
TGTGTTAGTTGGGGGGTGACTGTTAAAAGT (ssDNA) [30 nt ssDNA],1.6 ± 0.3 nM,1.7 ± 0.5 nM,2.6 ± 0.5 nM,–,Kd (Twinkle NTD [1]): 730 ± 450 nM; Kd (Twinkle NTD [2]): 17.5 ± 4 nM; Kd [6]: 4.5 ± 0.9 nM
TGCTATAACTCTTGAACACT (ssDNA) [20 nt ssDNA],1.9 ± 0.5 nM,2.2 ± 0.7 nM,8.8 ± 1.3 nM,–,Kd (Twinkle NTD [1]): 1200 ± 640 nM; Kd (Twinkle NTD [2]): 18 ± 7 nM; Kd [6]: 50 ± 11 nM
B1,–,–,–,–,stoichiometry N [7]: ~12 subunit
B2,–,–,–,–,stoichiometry N [8]: ~7 subunits
CTCTTGAACACT (ssDNA) [12 nt ssDNA],5.2 ± 1 nM,21.7 ± 3 nM,53 ± 17 nM,141 ± 25 nM,–
AACTCTTGAACACT (ssDNA) [14 nt ssDNA],3.3 ± 0.7 nM,8.8 ± 1.5 nM,39 ± 16 nM,121 ± 26 nM,–
TGAACACT (ssDNA) [8 nt ssDNA],9 ± 4.9 nM,116 ± 41 nM,–,–,binding result (Twinkle NTD [10]): no binding; Kd [11]: 10 ± 12 nM
ATAACTCTTGAACACT (ssDNA) [16 nt ssDNA],2.8 ± 0.7 nM,5.2 ± 1.4 nM,22.6 ± 5.1 nM,105 ± 24 nM,–
